Assay [1] addresses T1, proteinase K (Parengyodontium album, UniProt P06873). In words: Detection of β-actin RNA in HeLa cell lysates after stop solution (in vitro validation). The class given is biochemical. Particulars: FIG. 6; ~10,000 HeLa cells lysed, β-actin RT-PCR. As to the method:
HeLa cells (˜10,000 cells) were lysed in 50 μl lysis solution for 5 minutes at room temperature. Stop solution (5 μl) was then added; the lysate-stop solution was mixed, and incubated for 2 minutes at room temperature. A volume of 10 μl of stopped lysate was added to a 50 μl RT reaction followed by addition of 4 μl of RT reaction into a 20 μl PCR reaction using the β-actin primers/probe of the TaqMan® Gene Expression Cells-to-CT™ Kit (Applied Biosystems).

For assay [2], the target named is T1, proteinase K. Particulars: 100 μg/ml proteinase K; cited from earlier work.
Assay [3] addresses T1, proteinase K. Description: Indirect linked assay: proteinase K inhibition read out by reverse transcriptase real time PCR of Xeno RNA template (Cells-to-CT kit). The class given is biochemical. The text has this: The present example provides for inhibition of proteinase K in the context of preparing samples for nucleic acid detection. Said preparation of samples is described by pending U.S. patent application Ser. No. 12/122,274 filed May 16, 2008 entitled “Sample Preparation for In Situ Nucleic Acid Analysis, Methods and Compositions Therefor,” hereby incorporated by reference in its entirety. Embodiments of said patent application provide a process for preparing a sample containing RNA for in situ analysis of RNA or a surrogate thereof. In some embodiments, the process comprises contacting the sample containing RNA with a lysis mixture comprising a polypeptide having protease activity under conditions and for a time to produce a lysate, and admixing at least a portion of the lysate with a stop mixture that comprises an inhibitor of the polypeptide having protease activity at substantially the same temperature as the contacting step to form a stopped mixture. The resultant stopped mixture is preferably compatible with in situ reverse transcriptase and DNA polymerase reactions.
Methoxysuccinyl tetrapeptide chloromethylketone compounds synthesized as set forth in Example 1 herein were analyzed for inhibitory activity of proteinase K in such stopped mixtures as described below. Functional validation for the nucleic acid detection system using inhibitors of embodiments herein was carried out by measuring mRNA levels in biological samples using the TaqMan® Gene Expression Cells-to-CT™ Kit and the TaqMan® Cells-to-CT™ Control Kit (Applied Biosystems, Foster City, Calif.). MicroAmp® optical 96-well reaction plates were purchased from Applied Biosystems. Disposable reagent reservoirs were purchased from VistaLab Technologies, Inc (Mt. Kisco, N.Y.). Reverse transcription (RT) reactions were performed at 37° C. for 60 min, 95° C. for 5 min, and cooled to 4° C. by using GeneAmp® PCR systems 9700 (Applied Biosystems). Real time PCR was performed by using 7500 Fast Real-Time PCR System. (Applied Biosystems).
The present indirect linked assay measures the amount of inhibition of proteinase K activity by assaying reverse transcriptase real time PCR amplification of a template, which amplification is dependent upon reverse transcriptase activity.
Stop solutions (100 μl) contained the following reagents (10× concentration):
Test inhibitor, 11 mM (final concentration when diluted into stopped mixture is 1 mM). Test inhibitor was also used at concentrations such that, when diluted with a lysis mixture to form a stopped mixture as described below, the final concentration of inhibitor in the stopped mixture was 0.75 mM, 0.5 mM, 0.25 mM, 0.10 mM, 0.05 mM and 0 mM (control).
Proteinase K lysis solution (50 μL (no added DNase)) from the TaqMan® gene expression Cells-to-CT™ kit (Applied Biosystems) was aliquoted into 18 tubes. To the test samples (these are a working equivalent to lysis mixtures in the Cells-to-CT™ workflow), stop solution (5 μL) was added; the tubes were mixed and held for 2 min at room temperature. For the control reactions, 50 μl of proteinase K buffer was mixed with 5 μl of stop mix without inhibitor and the resulting reaction mixture was heated at 95° C. for 10 min to thermally inactivate the proteinase K reaction. Next, reverse transcription reagents were prepared, i.e. 15 μL 2×RT buffer, and 1.5 μL of 20×RT enzyme mix, were aliquoted and mixed in the wells of a 96 well plate. To this RT solution, 13.5 μL of each proteinase K containing stopped mixture was added and the solution was mixed well. The resulting mixtures were incubated at room temperature for 1 hr for residual proteinase K activity to degrade the RT enzyme. After 1 hr incubation at room temperature, 1 μL of Xeno™ RNA Control template (Applied Biosystems P/N 4386995 diluted to 25,000 copies/μL in 10 ng/μL poly A) was added to all wells except for the no template control wells. […]

The star is where a group is joined. MeOSuc = COC(=O)CCC(=O)*; CH2Cl = ClC*

T1 sequence (P06873 106-384): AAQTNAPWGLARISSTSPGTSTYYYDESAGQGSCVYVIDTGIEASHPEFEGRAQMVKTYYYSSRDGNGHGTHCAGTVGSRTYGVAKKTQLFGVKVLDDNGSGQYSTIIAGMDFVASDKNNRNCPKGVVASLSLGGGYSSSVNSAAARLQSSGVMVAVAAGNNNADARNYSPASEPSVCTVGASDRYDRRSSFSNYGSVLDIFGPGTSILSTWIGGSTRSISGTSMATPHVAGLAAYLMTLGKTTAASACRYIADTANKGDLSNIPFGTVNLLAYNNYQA

Consider “methoxysuccinyl-AlaAlaProVal-chloromethyl ketone (MeOSuc-AAPV-CH2Cl) [reference compound]”, for which the “concentration providing effective inhibition of proteinase K” value in assay [1] was found to be 0.5 mM. Moreover, the “lowest concentration with inhibitory activity for proteinase K” value in assay [2] is 0.25 mM. Besides, in assay [3] (Example 2, FIG. 1, tested 1 mM to 0.05 mM in stopped mixture), the “lowest concentration in the stopped mixture with inhibitory activity for proteinase K” value is “about 0.25 mM”. Also, in assay [3] (Example 6, FIG. 5, tested 1 mM to 0.05 mM), the “lowest concentration in the stopped mixture inhibitory for proteinase K activity” value is reported as “about 0.25 mM”. Also, the “concentration at which inhibitor begins to lose efficacy” value in assay [3] (FIG. 1) is recorded as “greater than 0.25 mM”. Also, the “average Ct (cycle threshold)” value in assay [3] (FIG. 1, 0.1 mM inhibitor) is on record as 40; in assay [3] (FIG. 1, 0.25 mM inhibitor) it was “about 33”; in assay [3] (FIG. 1, 0.5 mM inhibitor, Ct ~40 = active proteinase K, ~30 = inhibited), “about 30”; in assay [3] (FIG. 5, 0.1 mM inhibitor), “about 40”; in assay [3] (FIG. 5, 0.25 mM inhibitor), “about 29”.
